# In US20250177548A1, “FUSOGENIC PEPTIDE COMPOSITIONS AND METHODS OF CARGO DELIVERY” (CLEMSON UNIVERSITY, priority 2022, published 2025):
# “And” between values parts separate entries of the source, which are not always exact repeats. Identical values can stand only once. “Also recorded” adds a separate entry of the source. Non-standard residues stand in square brackets, D forms with d. No end group written: not given here. pG = not defined here
# Tests used:
# [1] = gel assay of siRNA protection from degradation in 50% serum; assay type: in vitro ADME; details: 50% FBS, 1 hour, several N:P ratios
# Procedure: Gel Shift Assays. DIVA3, DIV3H, and DIV3W (all three denoted as DIV3 (X)) peptides suspended in RNase-free water (10 μM), were thawed, and kept on ice prior to complexation with 10 μM of negative control siGENOME non-targeting siRNA #5 (siNT, GE Healthcare Dharmacon, Lafayette, CO) in RNase-free water and incubated for 20 minutes at room temperature to allow the formation of DIV3 (X)-siNT complexes. Various molar ratios of peptides were complexed with siNT at increasing N:P molar ratios to determine the minimum molar ratio necessary to completely complex free siRNAs using an electrophoretic mobility shift assay. To determine the ability of each peptide variant to protect siRNAs from degradation, DIV3 (X)-siNT complexes or siNT alone was left untreated or incubated with either 50% v/v FBS or 5 μg/mL RNase A at 37° C. for one hour. Next, complexes were dissociated using 6% sodium dodecyl sulfate (SDS). Samples were added to a 2% agarose gel and run at 100 V. Gels were stained with ethidium bromide, destained with Milli-Q water, and imaged using a ChemiDoc XRS imager (Bio-Rad, Hercules, CA).
# Characterization of Nanoparticle Size and Stability. To determine the minimum molar ratio necessary to completely complex free siRNAs, increasing N:P molar ratios of LHRH, DIV3W, and LHRH-DIV3W peptide were complexed with siRNAs and electrophoresed using a electrophoretic mobility shift assay. Molar ratios, shown as N:P, are representations of the molar amine peptide content in relation to 1 mole of phosphate group siRNA content. To determine the ability of the peptides to protect siRNAs from serum- or RNase-mediated degradation, LHRH and LHRH-DIV3W complexes were formed in RNase-free water with siNT at increasing N:P molar ratios and incubated at 37° C., 5% CO2, 50% v/v FBS, 5 μg/mL RNase A, or 50% v/v RNase free water for 1 hour. Peptide/siRNA complexes were dissociated using 6% sodium dodecyl sulfate (SDS) prior to electrophoresis in a 2% agarose gel run at 100 V. Gels were stained with ethidium bromide, washed with Milli-Q water, and imaged with a BioRad ChemiDoc XRS imager (BioRad, Hercules, CA).
# Peptides VA-LD and GF-LD, comprising the cleavable linker VA or GLFG, respectively, between the LHRH target sequence and the DIV3W peptide, and non targeting siRNA were electrostatically complexed at increasing N:P ratios then subjected to agarose gel electrophoresis to determine optimal siRNA binding for each peptide. […] Peptide-siRNA nanocomplexes at increasing N:P ratios for peptides for VA-LD (FIG. 30A) and GF-LD (FIG. 30C) were incubated in either Rnase A enzyme or in 50% fetal bovine serum (FBS) for 1 h, dissociated using SDS then subjected to gel electrophoresis to visualize siRNA bands. Gels showing increasing N:P ratios of peptide:siRNA for VA-LD (FIG. 30B) and GF-LD (FIG. 30D) from 20:1 to 80:1 N:P; white bands are indicative of intact siRNA
# CAOV3 cells [2] = assay: cellular uptake of labeled siRNA by flow cytometry; assay type: cell-based; details: for uptake efficiency: 80:1
# Procedure: Cellular Uptake. OVCAR3 and CAOV3 cells were prepared at 50,000 cells per well in a 24-well plate. […] Post-incubation, media was aspirated and cells were washed with 1× PBS. To counterstain the nuclei, SuperSignal NucBlue Hoechst stain (Thermo Fisher, Waltham, MA) was added to the cells for 30 minutes, followed by an additional 1×PBS wash. Subsequent imaging was performed using an EVOS FL Microscope (Thermo Fisher) at 10× magnification. For flow cytometric analysis, cells were detached, resuspended in 1× PBS, and analyzed using an Attune NXT Acoustic flow cytometer (Invitrogen, Carlsbad, CA) with the blue laser line and BL2 (574/26 nm) channel.
# Cellular Uptake and Targeting Specificity. Observation of cell uptake was performed by seeding OVCAR3 and CAOV3 cells at a density of 50,000 cells per well in a 24-well plate. LHRH and LHRH-DIV3W peptides were complexed with […] as previously described and delivered to cells at 20:1 to 80:1 N:P ratios. Each cell line was incubated with tandem peptide complexes for both 4- and 24-hour treatment periods. Following incubation, cell media was removed, and cells were washed with 1× PBS prior to the addition of 500 μL of 1×PBS and SuperSignal NucBlue Hoescht 33342 nuclear stain (Thermo Fisher, Waltham, MA). Cellular imaging was completed using an EVOS FL Microscope (Thermo Fisher) at 10×, 20×, and 40× magnification. Flow cytometry was completed after cell imaging and cells were trypsinized, resuspended in 1×PBS, and analyzed with an Attune NXT Acoustic Flow Cytometer (Invitrogen) with the red laser line and RL2 […] channel.
# LHRH receptor = target: T1, LHRH receptor (Homo sapiens, UniProt P30968); assay: competitive binding assay with LHRH receptor antibody; assay type: cell-based; details: OVCAR3 and CAOV3 cells, siNT-Cy5.5 complexes, 4 hours
# T1 construct: endogenous in cells; host or cells: OVCAR3, CAOV3
# T1 sequence (P30968 1-328): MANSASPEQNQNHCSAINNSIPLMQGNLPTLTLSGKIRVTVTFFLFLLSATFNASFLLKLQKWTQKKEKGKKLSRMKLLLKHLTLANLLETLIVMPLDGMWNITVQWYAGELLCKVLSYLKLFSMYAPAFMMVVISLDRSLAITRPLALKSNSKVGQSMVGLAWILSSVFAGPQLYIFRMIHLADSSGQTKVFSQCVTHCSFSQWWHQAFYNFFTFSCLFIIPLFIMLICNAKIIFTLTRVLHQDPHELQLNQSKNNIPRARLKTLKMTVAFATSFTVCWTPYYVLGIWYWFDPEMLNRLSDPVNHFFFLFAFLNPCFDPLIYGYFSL
# Procedure: To analyze the specificity of the LHRH-DIV3W tandem peptide targeting LHRH receptor, a competitive binding assay was performed by incubating OVCAR3 and CAOV3 cells with GnRHR primary antibody (1:100) in 1× PBS overnight at 4° C. after being blocked with a 1% bovine serum albumin solution for 30 minutes at room temperature. LHRH-DIV3W-siNT-Cy5.5 complexes were delivered after the overnight primary antibody incubation and incubated again for 4 hours. Secondary SuperSignal Alexa Fluor 488 antibodies were delivered dropwise to cells following Invitrogen SuperSignal protocols and left to incubate at room temperature for 30 minutes and subsequently stained with SuperSignal NucBlue Hoescht 33342 for an additional 30 minutes at room temperature. Cells were imaged at 20× and 40× using an Evos FL microscope (Thermo Fisher).
# CAOV3 cells [3] = system: CAOV3 cells
# Procedure: Cells were seeded at 10,000 cells per well with complete culture media in a 96-well plate and incubated overnight to allow the cells to attach. DIV3 (X) peptides were complexed with siNT at 40:1 to 80:1 N:P molar ratios. DIV3 (X)-siNT complexes were incubated with OVCAR3 or CAOV3 cells at a final concentration of 100 nM siRNA and 10% FBS for 24 hours. Media was then aspirated, cells were washed with 1× phosphate-buffered saline (PBS), and fresh media with 10% FBS was added to each well and incubated another 24 hours.
# Viability was measured using an MTS Assay performed with CellTiter 96 AQueous One Solution Cell Proliferation Assay (Promega, Madison, WI). Assay reagent was added according to the manufacturer's protocol, and cells were incubated for 4 hours. Absorbance was read using a BioTek Synergy LX (BioTek, Winooksi, VT) plate reader at 490 nm. […]
# OVCAR3 or CAOV3 cells were seeded at 10,000 cells per well with complete culture media in a transparent 96-well plate and incubated overnight to allow the cells to attach. […] After 24 hours of incubation the media was exchanged and after another 24-hour incubation at 37° C. in 5% CO2, viability was measured using an MTS Assay performed with the CellTiter 96 AQueous One Solution Assay (Promega, Madison, WI). […] Absorbance was read using a BioTek Synergy LX (BioTek, Winooksi, VT) plate reader at 490 nm.
substance,measurement,setting,value
pGHWSY-(d) LLRPGGGGGWEADIVADIVWDIVADIVAGGG-(d) RRRRRRRRR ([pG]HWSY[dL]LRPGGGGGWEADIVADIVWDIVADIVAGGG[dR][dR][dR][dR][dR][dR][dR][dR][dR]; reading uncertain) [LHRH-DIV3W],intact siRNA after incubation in 50% serum,[1],fully protect siRNA cargo from degradation
same,uptake efficiency higher than DIV3W uptake,CAOV3 cells [2]; CAOV3,11%
same,uptake efficiency,"CAOV3 cells [2]; CAOV3, siNT-Cy5.5, 4 hours",36.19%+9.67% and 36.19%±16.76%
same,uptake efficiency,"CAOV3 cells [2]; CAOV3, siNT-Cy5.5, 24 hours",63.47%+4.61% and 63.4%±4.6%
same,siRNA internalization after preincubation with LHRH receptor antibody,LHRH receptor,siRNA internalization was drastically decreased; also recorded: minimal siRNA internalization
same,cytotoxicity of peptide alone,CAOV3 cells [3],did not cause cytotoxic effects
